Results as given in patent US11685786 (MERUS N V, dated 2023).

B1: MF6825 x MF6825 bivalent monospecific CD137 IgG (antibody, V domains shown)
VH: QITLKESGPTLVKPTQTLTLSCTFSGFSLSTSGMSVGWIRQPPGKALEWLALIYWNDDKYFSPSLKSRLTITKDTSKNQVVLTLTNMDPVDTATYYCAHTLWGSDDVFDVWGQGTMVTVSS
VL: not shown
notes: bivalent IgG; also called PB14162; copies: 2 + 2
B2: MF6798 x MF6798 bivalent monospecific CD137 IgG (antibody, V domains shown)
VH: QVQLVQSGSELKKPGASVKVSCRASGYTFTNFAMTWVRQAPGQGPEYMGWINTNTGNPTYAQGFTGRFVFSLDTSVNTAYLQISSLKAEDTAVYYCARDWASVMVRGDLDYWGQGTLVTVSS
VL: not shown
notes: bivalent IgG; copies: 2 + 2
B3: MF6783 x MF6783 bivalent monospecific CD137 IgG (antibody, V domains shown)
VH: QVQLVQSGSELKKPGASVKVSCKASGYTFTNFAMNWVRRAPGQGLEWMGWINTNTGNPTYAQGFTGRFVFSLDTSVNTAYLQISSLKAEDTAVYYCARDWGVIGGHYMDVWGKGTTVTVSS
VL: not shown
notes: bivalent IgG; also called PG6783; PB14143; copies: 2 + 2
B4: MF6744 x MF6744 bivalent monospecific CD137 IgG (antibody, V domains shown)
VH: EVQLVQSGAEVKKPGESLKISCKGSGYSFTSYWIGWVRQMPGKGLEWMGIIFPDDSDTRYSPSFQGQVTISADKSISTAYLQWSSLKPSDTAMYYCVRLGGYSGYAEDFVDFWGQGTLVTVSS
VL: not shown
notes: bivalent IgG; also called PG6744; PB14135; copies: 2 + 2
B5: MF6788 x MF6788 bivalent monospecific CD137 IgG (antibody, V domains shown)
VH: EVQLVQSGSELKKPGASVKVSCKASGYTFTNFAMNWVRQAPGQGLEWMGWINTNTGNPTYAQDFTGRFVFSLDTSGNTAYLQISSLKAEDTAVYYCARDWGLVAIGYFDYWGQGTLVTVSS
VL: not shown
notes: bivalent IgG; also called PB14193; copies: 2 + 2
B6: MF6795 x MF6795 bivalent monospecific CD137 IgG (antibody, V domains shown)
VH: EVQLVQSGAEVKKPGESLKISCKGSGYSFTSYWIGWVRQMPGKGLEWMGIIYPDDSDTRYSPSFQGQVTISADKSSSTAYLQWSSLKASDTAMYYCASFYTGIVGATGAFDVWGQGTTVTVSS
VL: not shown
notes: bivalent IgG; copies: 2 + 2
B7: MF6861 x MF6861 bivalent monospecific CD137 IgG (antibody, V domains shown)
VH: QVQLVQSGAEVKKPGASVKVSCKASGYTFTSYGISWVRQAPGQGLEWMGWISAYNGNTNYAQKLQGRVTMTTDTSTSTAYMELRSLRSDDTAVYYCARDSDGYGPKAFDYWGQGTLVTVSS
VL: not shown
notes: bivalent IgG; copies: 2 + 2

What follows are binders tested against T1, recombinant huCD137-Fc (R&D; cat. no. 838-4B) (human, UniProt Q07011 24-186) (assay: competition ELISA: CD137L-muCD8 biotin on coated CD137-Fc, IgG 20 ug/ml).
T1 construct: Bought; not shown: Fc of bought fusion protein, not described

Binder | % CD137L block
B1 | 89%
B2 | 44%
B3 | 44%
B4 | 67%
B5 | 55%
B6 | 32%
B7 | 50%

What follows are binders tested against T1, recombinant huCD137-Fc (R&D; cat. no. …) (assay: CD137L blocking assay; competitor CD137L; format not told in the excerpt).

Binder | % CD137L block
B1 | 89%
B2 | 44%
B3 | 44%
B4 | 67%
B5 | 55%
B6 | 32%
B7 | 50%
